Measurements: the supplement of paper PMC12042874
± gives the uncertainty stated by the source.

Assay: amyloid nucleation score (Sup35N fusion, yeast selection) (log enrichment); library NNK3; higher = more nucleation; inactive = no reads after selection
In short: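 Output and input plasmid inserts were sequenced by Illumina after psi-negative yeast carrying Sup35N fused to peptides of 20 random codons had been induced 24 hours with 100 μM copper sulfate and grown 7 days at 30°C on medium lacking adenine and uracil. The nucleation score is the DiMSum log enrichment of output over input reads, centred on the mode score of non-aggregating sequences. Sequences with under 100 input reads were excluded.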

Row | Substance | amyloid nucleation score
1 | GYMGVGRIVSA | inactive
2 | TWVVYFVVRMCVQGSVYSMA | inactive
3 | CHDLLHVVIEIPVCFLCTKG | 0.807 ± 0.18
4 | SLRRKIGLLIFFDNLIF | inactive
5 | AKFSQVLLLQWGSSPDIDRE | 1.11 ± 0.18
6 | AVFTCCCPRK | inactive
7 | SSSVCRSLSPLILSHKRYYS | inactive
8 | RADFLPVKNVMRFRCEFWKR | inactive
9 | LCLVSLVIHHGYVLVT | inactive
10 | MYWLHYKVHNYNSCVI | inactive
11 | PRRSNSFRLPLIHISQYSLK | 0.939 ± 0.2
12 | RVGISTYLVVSEE | inactive
13 | KNLRVLGSSLIGLTLIECHG | -0.801 ± 1.1
14 | KSCHQSRFISDYRPAAPEDS | inactive
15 | IQHSFCGRNSDLPLNVWLMW | inactive
16 | SPRQHARCRTLTLTRTLRPM | inactive
17 | RCSRWNWCVVAG | inactive
18 | MTILYYDS | inactive
19 | GCLIAGYKKRDANKFCGVAL | inactive
20 | IVCNIN | -0.036 ± 0.55
21 | TEQRMQ | inactive

Row | Substance | amyloid nucleation score
22 | VLDLTKYSFLTI | inactive
23 | YTRDRQV | inactive
24 | LIARCKRAIAGGY | inactive
25 | VLVVCSLSAC | inactive
26 | TDRTQ | inactive
27 | VLGMNEPCSFW | inactive
28 | MRLMEQYFICCVM | 1.06 ± 0.17
29 | HANRSCCLPCIHLPFSRVLS | inactive
30 | VSSAMYYLFKGLAETLRYSS | inactive
31 | VYFFSGLGTCD | inactive
32 | FSVLVSCSWGMKFI | inactive
33 | SFAGVCAMCKTCKRAKGVPA | -0.39 ± 1.9
34 | GCAKVKLI | -0.292 ± 0.75
35 | VWLWPI | inactive
36 | RPVAFPIR | inactive
37 | IVQYELTACDESAVKWIGMP | inactive
38 | VPVVGISYSYLILWFYLYVG | inactive
39 | QFVAFVYYVCLLWYTGALLI | inactive
40 | NSFSLGNSLNPYKAAPRRML | inactive
41 | FGTEDK | inactive
42 | TPKFLSMLIRTHSSPVRTHL | inactive

Row | Substance | amyloid nucleation score
43 | LRSFQWVIVTMPLTRIRSDK | inactive
44 | CKGLIFISSFANVVLN | 1.52 ± 0.12
45 | TLDINMNLRSLYVGQHYADI | inactive
46 | SILSPYLV | inactive
47 | KNLDKLVKMYH | inactive
48 | LRGKDN | inactive
49 | ASPYTGDWDTVMC | inactive
50 | SMRSGVLGHIIQTM | inactive
51 | FFKVSPMYY | inactive
52 | RPSFLVGRFMTVLKSPRHDV | -0.692 ± 1.4
53 | GRKDAKR | inactive
54 | YEARSWE | inactive
55 | GFINKDVF | inactive
56 | SLKCLLLVMTCSLTSHAPPA | inactive
57 | VKVMMT | inactive
58 | IMHGSNMVRRGLVQY | inactive
59 | RDGHIQMCFIWVKRDNCQVF | inactive
60 | YDNVDNYTTEISVNGCLMMN | inactive
61 | WNYHFPSS | 0.339 ± 0.37
62 | DAYGLYYTSYYPGT | inactive
63 | CWGST | inactive

Row | Substance | amyloid nucleation score
64 | YNLSNTVLAISVGERNT | inactive
65 | AIRGVARLRVMDRVSALPLR | inactive
66 | QSHIVSRGLAEENTW | inactive
67 | AITHRIDS | inactive
68 | QVCYFYIIVLVLD | inactive
69 | KTLTGQFGCSTTALCNDVEC | -0.515 ± 0.75
70 | ILAFLERYTLMWFRELYNAS | inactive
71 | LFMRCSYCSV | inactive
72 | SSEHFGCEASGVAER | inactive
73 | TQLNTFYSVITSSFMIDFC | inactive
74 | FDNFFYWSRKRD | inactive
75 | ICSFFGNSPVRLQVYFLWSW | inactive
76 | EHIEIRSSFEVSPHTPNPAS | inactive
77 | ISMLMFDLA | inactive
78 | DVSRVIA | inactive
79 | PNRQTLFSSIRF | 0.092 ± 0.56
80 | CEYCFGMTSLTAWWCYVLRC | inactive
81 | QFDKSNPWNSSSLMMPENGV | inactive
82 | YWLNK | inactive
